Experimental data from the supplement of paper PMC9170038.

Columns and labels:
[1] = system: MS2 coat protein; test: apparent KD of MS2 coat protein, switch ON state; designed switch direction (-1 OFF switch, 1 ON switch): -1; higher = weaker reporter binding; details: FMN input: 0 or 200 uM; Eterna round: R93 (includes R88 designs)
Summary of the method: (§1)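 With or without constant ligand, designed RNA switches in 100 mM Tris-HCl pH 7.5, 80 mM KCl and 4 mM MgCl2 were titrated with SNAP-549-labelled MS2 coat protein. Concentrations went up in twofold steps from 0.7 or 1.5 nM to 3 µM. The switches had been transcribed on-chip from Illumina sequencing clusters, and apparent KD is the per-design median of normalised cluster binding-curve fits.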

[2] = system: MS2 coat protein; test: apparent KD of MS2 coat protein, switch OFF state (with FMN for OFF switches, without FMN for ON switches); designed switch direction (-1 OFF switch, 1 ON switch): -1; higher = weaker reporter binding; details: FMN input: 0 or 200 uM; Eterna round: R93 (includes R88 designs)
Summary of the method: as §1

Sequence | apparent KD of MS2 coat protein [1] | apparent KD of MS2 coat protein [2]
AAGAAGGGAGGAUAUACAUAAAAGAAAGAAAAGAAAAGAAAACAUGAGGAUCACCCAUGUAGAAGGCCCAAGAA [EteRNA is fun!] | 28.7 nM | 29.3 nM
AAAAAGGUAGGAUAUACAUGAGGAUCACCCAUGUACAUAAAUGGAGAAAAAAACAGUAGUAGAAGGGCCAAAAA [Ex3 Malc#10] | 29.5 nM | 36.9 nM
AGCAAGUCAGGAUAUGCGAAGUCAGGACACACACUGACGAAGCAGAAGGGACAUGAGGAUCACCCAUGUAAGCA [JR_Exclusion4_Sub6] | 42.5 nM | 39.3 nM
AAGAAGUCAGGAUAUGCCAGAGAACAAGAAAGUGACGAAUAGCAGAAGGGACAUGAGGAUCACCCAUGUAAAGA [Opal 10] | 33.7 nM | 21.9 nM
GGGUAACAUGAGGAUCACCCAUGUGAGGAUAUUCUAGGGAUGGAAGCUCGGCCGGCCAGGAGAAGGUACUAAAG [Janelle Amethyst 18 Mod 20 - Jieux - Exclusion 1] | 26.3 nM | 36.8 nM
GUCCGACAUGAGGAUCACCCAUGUAAGGAUAUGUAUCCUUCGGCCCGAACCAGAGGAAGCAGAAGGUACAGGGA [Oneserqu] | 24.8 nM | 20.9 nM
AAAAAGUCAGGAUAUCGGAAAAUAAAAAUAAAAAUAAAAAACGAGAAGGGACAUGAGGAUCACCCAUGUAUGAC [Mat - Exclusion 4 - Mayanna - D114] | 27.6 nM | 24.6 nM
ACCCUGCUAGGAUAUACAGCAGGGAUUCGAAAACCCACGAAACAUGAGGAUCACCCAUGUAGAAGGAGUAGGGA [Bimaat] | 17.5 nM | 16 nM
AUCUACCUAGGAUAUACAUGAGGAUCACCCAUGUACAGUUUCAACUAGGGAUACUCACGUAGAAGGAGGUAGAU [JR_Exc003_Sub1210] | 34.8 nM | 21.2 nM
AAAACUGGAGGAUAUACAUGAGGAUCACCCAUGUGUGGAUGAGCUGAAACGGCAUCACGUAGAAGGCCACAAAA [Gilly Gone Silly 40 - Jieux - Exclusion 3] | 35.3 nM | 45.2 nM
AAAGGACGAGGAUAUACAUGAGGAUCACCCAUGUAAAAAGCGUAGUAAAAGAACUUAUGUAGAAGGCGUCCAAA [Meechl Ex3 2 R2 v3] | 59.4 nM | 137 nM
AGGGAGUGAGGAUAUGCGAAAUAAAAAGAAGGAAAAAAAGAGCAGAAGGCACAUGAGGAUCACCCAUGUGAGAA [milkweed 11] | 22.6 nM | 15.7 nM
AAUAAACAUGAGGAUCACCCAUGUAAGGAUAUGCGAACAAUAAGAAGACAAUAAUAAAGCAGAAGGUACAAGAG [Ex1 sub 1] | 27 nM | 50 nM
AAAACGGUAGGAUAUACGAUUUGGUACUAGACCGAGGAACCACAUGAGGAUCACCCAUGUAGAAGGACCAAAAA [EX2 Malc#19] | 13 nM | 14 nM
AACAGGUCAGGAUAUGUGGAAAAAAUAAAAAAAAAUAAAACACAGAAGGGACAUGAGGAUCACCCAUGUAAAUA [Mat - Exclusion 4 - Mayanna - D142] | 68.7 nM | 59.2 nM
AAAAAGUGAGGAUAUACAUGAGGAUCACCCAUGUGUAUAAAAAAUUACACAAAAGAAUGUAGAAGGCACUAAAA [JL Mayanne Mod Summer] | 23.5 nM | 124 nM
AACAUGUCAGGAUAUGUACGAAAAAAUAAAAAAAUAAAAGUACAGAAGGGACAUGAGGAUCACCCAUGUCAAAA [EX4 394: Minimal 7] | 33.4 nM | 47.4 nM
ACCGAACAUGAGGAUCACCCAUGUGAGGAUAUAGACGCAAAUUAAACGCGUAACAAAACUAGAAGGCACUGGGC [Veais] | 27.6 nM | 15.3 nM
AAAAAGUUAGGAUAUACAUGAGGAUCACCCAUGUACAUAUAUGGAGAAUAUAGCAGUAGUAGAAGGGACAAAAA [EX2 Malc#13] | 26.9 nM | 34.8 nM
CUCAUGUGAGGAUAUGUACAGAAAAAAAUGGGUGAAACUGUACAGAAGGCACAUGAGGAUCACCCAUGUGCAAA [EX4 377: S S Pseudoknot 2] | 19.1 nM | 21.4 nM

Sequence | apparent KD of MS2 coat protein [1] | apparent KD of MS2 coat protein [2]
AGGAAACAUGAGGAUCACCCAUGUCAGGAUAUUCAAAAGAAAAGAAAAGAAAGAAGAAGAAGAAGGGACAAGAA [Wazner] | 36.7 nM | 44.5 nM
GAAAAACAUGAGGAUCACCCAUGUCAGGAUAUGUAGAAAAAGAAAAAAAGAAAAGAAAACAGAAGGGACAAAAG [Mat - Same state - Mayanna Mod - D105] | 32.6 nM | 38.5 nM
AACCAACAUGAGGAUCACCCAUGUCAGGAUAUGCGUACAACAUACAACAUACAUCAAAGCAGAAGGGACACAAA [Amethyst 84] | 20.2 nM | 23.6 nM
AGCUAGUCAGGAUAUACGAACAUGUCGAGAGACGUGAAGGGACAUGAGGAUCACCCAUGUAGAAGGGACUAGCA [Mat - Exclusion 2 - JL mod - D2] | 35.5 nM | 170 nM
UAAAAGUGAGGAUAUUCGGAUAGGAAAACGAAAACCUAUCCGAAGAAGGCACAUGAGGAUCACCCAUGUGGAAU [Mat - Exaclusion 4 - Eli mod - D48] | 31.3 nM | 36 nM
AAAUGUCUAGGAUAUACAUGAGGAUCACCCAUGUGUAAAAAUAAAUACACAAAAGAAAGUAGAAGGAGACAAAA [Ex 3 May 13] | 22.4 nM | 47.3 nM
AGUAGGCGAGGAUAUACAUGAGGAUCACCCAUGUGAAAGAAAAAAGUGAGAAAGAAAAGUAGAAGGCGCUGACA [Ex 3 mod of Eli's mod of Lego's 73%] | 60.4 nM | 204 nM
AAAGGUUGAGGAUAUGCGUGGAAAAAGUGUAUUCAAAAAAAACAUGAGGAUCACCCAUGUAGAAGGCGACCAAA [MS2 Riboswitches On Chip Exclusion 2 wbt3] | 61.9 nM | 163 nM
AAAAAACAUGAGGAUCACCCAUGUGAGGAUAUGCAUAAAAAAAAAAAAAAAAAAAAAUGCAGAAGGCACAUAAA [jn_bayonne] | 40.1 nM | 78.5 nM
AGAGACAGAGGAUAUACAUGAGGAUCACCCAUGUAAGAGAAAGAAAAGGGAAAGAAAAGUAGAAGGCUGAGAGA [Ruby 67] | 24.2 nM | 28.7 nM
CUCAUGUCAGGAUAUGUAGCAUGAUACGAAAGUAUCAUGCUACAGAAGGGACAUGAGGAUCACCCAUGUCCAAA [Ex4: 944] | 119 nM | 37.7 nM
AAGGUAUGAGGAUAUACAUAGAUACAGACACAUGUUCAAGUACAUGAGGAUCACCCAUGUAGAAGGCAUAUAUA [AJ 14] | 24.2 nM | 33 nM
AAUAAACAUGAGGAUCACCCAUGUCAGGAUAUGCACAAACAAACAAACAAACAAGCUAGCAGAAGGGACACUAC [Amethyst 87] | 23.1 nM | 31 nM
CUCAAGUUAGGAUAUCCAAGAAAAGAAGAGAAAGAAAAGAAGGAGAAGGAACAUGAGGAUCACCCAUGUAAGAA [EteRNA is fun!] | 32.8 nM | 38.5 nM
AAGAACGCAGGAUAUACAUGAGGAUCACCCAUGUAAAAGAAAGAAAAGGGAAAGAAAAGUAGAAGGGCGAAGAA [Aakheperkare Thutmose I] | 33.9 nM | 33.1 nM
AUAAACGGAGGAUAUACAUGAGGAUCACCCAUGUAAAAAAAAAAAAGUUCCUCAAAAAGUAGAAGGUCGAAUAA [JR_Exc003_Sub012] | 15.5 nM | 13 nM
AAAAAAAAAGGAUAUAAAACAGAGGAUAUACAUAAAUAAAAACAUGAGGAUCACCCAUGUAGAAGGCUGAAAAA [Meechl Ex2 R2 m0] | 18.7 nM | 22.2 nM
GAAAUACGAGGAUAUACAUGAGGAUCACCCAUGUCAAAAAAUGACUACACAAAAGAAAGUAGAAGGCGUAAAAG [Mat - Exclusion 3 - Mayanna mod - D128] | 28.6 nM | 38.4 nM
ACCAGUACAGGAUAUACAUGAGGAUCACCCAUGUGAGAAUUAAGUGGCGUACCACAAAGUAGAAGGGUACUGGA [Mat - Exclusion 3 - JL mod - D11] | 43.3 nM | 273 nM
AGCUAGUCAGGAUAUACGAGCAUGUCAAAAGACGUGAAGGGACAUGAGGAUCACCCAUGUAGAAGGGACUAGCA [Diamond 22] | 40.3 nM | 122 nM
